The assay addresses T1, Mycobacterium tuberculosis GroEL1 (Rv3417c) without (His)6 tag (Mycobacterium tuberculosis), P9WPE9.
T1 chain: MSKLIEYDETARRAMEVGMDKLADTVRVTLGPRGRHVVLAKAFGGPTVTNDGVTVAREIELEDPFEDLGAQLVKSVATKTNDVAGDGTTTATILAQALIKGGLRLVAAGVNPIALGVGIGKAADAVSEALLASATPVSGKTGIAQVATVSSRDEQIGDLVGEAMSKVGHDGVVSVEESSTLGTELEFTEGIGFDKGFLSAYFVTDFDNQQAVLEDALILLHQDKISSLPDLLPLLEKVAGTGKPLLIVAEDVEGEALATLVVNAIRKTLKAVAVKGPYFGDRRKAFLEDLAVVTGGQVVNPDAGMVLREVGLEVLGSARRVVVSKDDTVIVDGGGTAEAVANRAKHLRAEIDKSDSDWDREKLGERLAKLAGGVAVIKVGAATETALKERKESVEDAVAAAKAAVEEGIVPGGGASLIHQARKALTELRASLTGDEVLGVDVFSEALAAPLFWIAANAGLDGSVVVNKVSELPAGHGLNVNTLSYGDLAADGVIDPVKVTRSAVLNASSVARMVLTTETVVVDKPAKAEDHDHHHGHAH
Description: SEC. The conditions noted are these: remark: other sources report otherwise.

B1: Mycobacterium tuberculosis GroEL1 (Rv3417c) without (His)6 tag, P9WPE9 1-539 (natural protein)
chain: MSKLIEYDETARRAMEVGMDKLADTVRVTLGPRGRHVVLAKAFGGPTVTNDGVTVAREIELEDPFEDLGAQLVKSVATKTNDVAGDGTTTATILAQALIKGGLRLVAAGVNPIALGVGIGKAADAVSEALLASATPVSGKTGIAQVATVSSRDEQIGDLVGEAMSKVGHDGVVSVEESSTLGTELEFTEGIGFDKGFLSAYFVTDFDNQQAVLEDALILLHQDKISSLPDLLPLLEKVAGTGKPLLIVAEDVEGEALATLVVNAIRKTLKAVAVKGPYFGDRRKAFLEDLAVVTGGQVVNPDAGMVLREVGLEVLGSARRVVVSKDDTVIVDGGGTAEAVANRAKHLRAEIDKSDSDWDREKLGERLAKLAGGVAVIKVGAATETALKERKESVEDAVAAAKAAVEEGIVPGGGASLIHQARKALTELRASLTGDEVLGVDVFSEALAAPLFWIAANAGLDGSVVVNKVSELPAGHGLNVNTLSYGDLAADGVIDPVKVTRSAVLNASSVARMVLTTETVVVDKPAKAEDHDHHHGHAH
Broadly, the stoichiometry N is the number of molecules, sites or subunits per partner or assembly. B1 displayed a stoichiometry N of 2.

The values are drawn from paper PMC2731897.
